From patent publication US10253323B2, “Chloroplast transit peptides” (priority 2015, dated 2019)
“Also recorded” adds a separate entry of the source.

B1: Cry2Aa without a TraP: Cry2Aa protein expressed in Arabidopsis from control plasmid without a chloroplast transit peptide sequence upstream of the cry2Aa gene (protein, UniProt P0A377 1-633, looked up)
Pesticidal crystal protein …: MNNVLNSGRTTICDAYNVVAHDPFSFEHKSLDTIQKEWMEWKRTDHSLYVAPVVGTVSSFLLKKVGSLIGKRILSELWGIIFPSGSTNLMQDILRETEQFLNQRLNTDTLARVNAELIGLQANIREFNQQVDNFLNPTQNPVPLSITSSVNTMQQLFLNRLPQFQIQGYQLLLLPLFAQAANMHLSFIRDVILNADEWGISAATLRTYRDYLRNYTRDYSNYCINTYQTAFRGLNTRLHDMLEFRTYMFLNVFEYVSIWSLFKYQSLMVSSGANLYASGSGPQQTQSFTAQNWPFLYSLFQVNSNYILSGISGTRLSITFPNIGGLPGSTTTHSLNSARVNYSGGVSSGLIGATNLNHNFNCSTVLPPLSTPFVRSWLDSGTDREGVATSTNWQTESFQTTLSLRCGAFSARGNSNYFPDYFIRNISGVPLVIRNEDLTRPLHYNQIRNIESPSGTPGGARAYLVSVHNRKNNIYAANENGTMIHLAPEDYTGFTISPIHATQVNNQTRTFISEKFGNQGDSLRFEQSNTTARYTLRGNGNSYNLYLRVSSIGNSTIRVTINGRVYTVSNVNTTTNNDGVNDNGARFSDINIGNIVASDNTNVTLDINVTLNSGTPFDLMNIMFVPTNLPPLY
B2: TraP11: chimeric chloroplast transit peptide, SEQ ID NO:2; N-terminus Glycine max, C-terminus Brassica napus; tested fused to YFP (pDAB101980) (protein)
chain: MAQVSRVHNLAQSTQIFGHSSNSNKLKSVNSVSLKTHQPRASSWGLKKSGTMLNGSVIRPVKVTASVS
modifications: TraP11

What was measured:
tobacco budworm (TBW) = test: Insect bioassay of Cry2Aa Arabidopsis events, tobacco budworm; assay type: in vivo
Experimental: (§1) The effectiveness of the TraP11 chimeric chloroplast transit peptides on Cry2Aa protein expression in Arabidopsis thaliana was assessed. Transgenic Arabidopsis plants which contained TraP11 chimeric chloroplast transit peptides fused to the Cry2Aa protein were assayed for insect tolerance to soybean looper (SBL) and tobacco budworm (TBW).
(§2) A small aliquot of T2 seed (approx. 100-200 seeds) for each event were suspended in 40 mls of 0.1% agarose solution and cold stratified at 4° C. for 24 hrs. The stratified seeds were then sown by pipetting 10 ml of seed onto the surface of four flats in a propagation flat. The flats were filled with Sunshine #5 soil Media™ (Sun Gro; Bellevue, Wash.) and lightly covered with fine vermiculite. The trays were saturated in Hoagland's fertilizer prior to sowing and as needed afterward. After sowing, humidity domes were used to cover the trays and they were then placed into a Conviron™ growth chamber set at 24° C. with a 16 hr photo period. Incandescent and fluorescent lights provided a light level of 200 PAR. After 5 days the seeds germinated and the domes were removed. The first herbicide selection of transformants was on day 6 and the second on day 10. Liberty™ herbicide (a.i. glufosinate-ammonium) was applied using a DeVilbiss atomizer hand sprayer at a rate of 200 g ai/ha to remove nulls. Roughly 25% of the plants were nulls as expected. A row of wild type checks were also included in the selection and they had 100% mortality after two herbicide applications. At 14 days the plants were ready for transplanting. […] The flats were presoaked with Hoagland's fertilizer prior to transplant and afterward as needed. The transplants were propagated in a non-air conditioned green house set at 25° C. with 14 hours of supplemental light. Silique development was inhibited by trimming with scissors and thus created more plant tissue for testing. Plants were ready for DNA sampling at 16-18 days and ready for bio-assay at about 23 days. The putative transgenic plants were screened using molecular confirmation assays and identified events were advanced for protein analysis and bioassay results.
(§3) Both sets of T1 Arabidopsis events were tested in insect bioassay experiments. […] There was a correlation between protein expression and leaf protection against both SBL and TBW for Arabidopsis events expressing Cry2Aa without a TraP (r^2=0.49 [SBL], 0.23 [TBW]), and for Arabidopsis events expressing Cry2Aa with TraP11 (r^2=0.75 [SBL], 0.17 [TBW]). Resultantly, an increase in protein expression caused significant protection against leaf damage (Pr<0.05).

soybean looper (SBL) = test: Insect bioassay of Cry2Aa Arabidopsis events, soybean looper; assay type: in vivo
Experimental: as §1, §2, §3

[1] = tested on: infiltrated tobacco cells; test: Western blot of infiltrated tobacco plants; assay type: cell-based, Nicotiana tabacum; settings: infiltrated tobacco leaf tissue
Experimental: Samples of the infiltrated tobacco plants were assayed via Western blotting. Leaf punches were collected and subjected to bead-milling. About 100-200 mg of leaf material was mixed with 2 BBs (Daisy; Rogers, Ark.) and […] of PBST for 3 minutes in a Kleco™ bead mill. The samples were then spun down in a centrifuge at 14,000× g at 4° C. The supernatant was removed and either analyzed directly via Western blot or immunoprecipitated. The immunoprecipitations were performed using the Pierce Direct IP Kit™ (Thermo Scientific; Rockford, Ill.) following the manufacturer's protocol. Approximately, 50 μg of anti-YFP or anti-GFP was bound to the resin. The samples were incubated with the resin overnight at 4° C. Next, the samples were washed and eluted the following morning and prepped for analysis by combining equal volumes of 2×8M Urea sample buffer and then boiling the samples for 5 minutes. The boiled samples were run on a 4-12% SDS-Bis Tris gel in MOPS buffer for 40 minutes. The gel was then blotted using the Invitrogen iBlot™ (Life Technologies; Carlsbad, Calif.) following the manufacturer's protocol. The blotted membrane was blocked for 10 minutes using 5% non-fat dry milk in PBS-Tween® solution. The membrane was probed with the primary antibody (monoclonal anti-GFP or anti-YFP in rabbit) used at a 1:1000 dilution in the 5% non-fat dry milk in PBS-Tween® solution for 1 hour. Next, the membrane was rinsed three times for five minutes with PBS-Tween® to remove all unbound primary antibody. The membrane was probed with a secondary monoclonal anti-rabbit in goat antibody (Life Technologies) used at a 1:1000 dilution, for 60 minutes. The membrane was washed as previously described and developed by adding Themo BCIP/NBT™ substrate. The colormetric substrate was allowed to develop for 5-10 minutes and then the blots were rinsed with water before being dried.

[2] = tested on: chloroplasts of the tobacco leaf tissues; test: Tobacco transient assay, confocal microscopy of TraP-YFP/GFP; assay type: cell-based, Nicotiana tabacum; settings: TraP-YFP or TraP-GFP fusion, Agrobacterium-infiltrated tobacco leaf tissue
Source text: The above described chimeric chloroplast transit peptide sequences were initially tested via a transient in planta assay. Polynucleotide sequences which encode the TraP10 (SEQ ID NO:9), TraP11 (SEQ ID NO:10), TraP17 (SEQ ID NO:11), TraP18 (SEQ ID NO:12), TraP19 (SEQ ID NO:13), TraP26 (SEQ ID NO:14), TraP27 (SEQ ID NO:15), and TraP28 (SEQ ID NO:16), chimeric chloroplast transit peptide sequences were synthesized. A linker sequence (SEQ ID NO:17) was incorporated between the TraP sequence and the yfp coding sequence of TraP10 and TraP11. The resulting constructs contained two plant transcription units (PTU). The first PTU was comprised of the Arabidopsis thaliana Ubiquitin 10 promoter (AtUbi10 promoter; Callis, et al., (1990) J. Biol. Chem., 265: 12486-12493), TraP-yellow fluorescent protein fusion gene (TraP-YFP; US Patent App. 2007/0298412) or the TraP-green fluorescent protein fusion gene (TraP-GFP; Sheen et al., (1995) Plant J., 8(5): 777-84), and Agrobacterium tumefaciens ORF 23 3′ untranslated region (AtuORF23 3′UTR; U.S. Pat. No. 5,428,147). The second PTU was comprised of the Cassava Vein Mosaic Virus promoter (CsVMV promoter; Verdaguer et al., (1996) Plant Molecular Biology, 31: 1129-1139), phosphinothricin acetyl transferase (PAT; Wohlleben et al., (1988) Gene, 70: 25-37) or DSM-II (International Patent App. 2008070845), and Agrobacterium tumefaciens ORF 1 3′ untranslated region (AtuORF1 3′UTR; Huang et al., (1990) J. Bacteriol., 172: 1814-1822). Construct pDAB101979 contains the TraP10 chimeric chloroplast transit peptide (FIG. 3). Construct pDAB101980 contains the TraP11 chimeric chloroplast transit peptide (FIG. 4). Construct pDAB107634 contains the TraP17 chimeric chloroplast transit peptide (FIG. 5). Construct pDAB107635 contains the TraP18 chimeric chloroplast transit peptide (FIG. 6). Construct pDAB107636 contains the TraP19 chimeric chloroplast transit peptide (FIG. 7). Construct pDAB109847 contains the TraP26 chimeric chloroplast transit peptide (FIG. 8). Construct pDAB109848 contains the TraP27 chimeric chloroplast transit peptide (FIG. 9). Construct pDAB109849 contains the TraP28 chimeric chloroplast transit peptide (FIG. 10). […] The constructs were confirmed via restriction enzyme digestion and sequencing. Finally, the constructs were transformed into Agrobacterium tumefaciens and stored as glycerol stocks.
From an Agrobacterium glycerol stock, a loop full of frozen culture was inoculated into 2 ml of Yeast-extract Peptone Dextrose (100 μg/ml spectinomycin) in a 14 ml sterile tube. The inoculated media was incubated at 28° C. overnight with shaking at 200 rpm. The following day about 100 μl of the culture was used to inoculate 25 ml of YPD (100 μg/ml spectinomycin) in a 125 ml sterile tri-baffled flask, and incubated overnight at 28° C. overnight with shaking at 200 rpm. The following day the cultures were diluted to an OD600 of 0.5 in sterile ddH2O (pH 8.0). The diluted Agrobacterium strain was mixed with a second Agrobacterium strain containing the P19 helper protein at a ratio of 1:1. The culture were used for tobacco leaf infiltration via the Voinnet method. Voinnet O, Rivas S, Mestre P, and Baulcombe D, (2003) An enhanced transient expression system in plants based on suppression of gene silencing by the p19 protein of tomato bushy stunt virus. The Plant Journal, 33: 949-956. Infiltrated tobacco plants were placed in a Conviron™ set at 16 hr of light at 24° C. for at least three days until being assayed.
Agrobacterium-infiltrated tobacco leaves were severed from the plant, and placed into a petri-dish with water to prevent dehydration. The infiltrated tobacco leaves were observed under blue light excitation with long-pass filter glasses held in place using a Dark Reader Hand Lamp™ (Clare Chemical Research Co.; Dolores, Colo.) to identify undamaged areas of the leaf that were successfully expressing the YFP or GFP reporter proteins. […]

Molecule | protection of Arabidopsis plants from TBW damage (tobacco budworm (TBW)) | Cry2Aa protein concentration resulting in less than 30% leaf damage (tobacco budworm (TBW); Arabidopsis events) [ng/cm^2] | Cry2Aa protein level at the 20% leaf damage cut-off point (tobacco budworm (TBW); Arabidopsis events) | protection of Arabidopsis plants from SBL damage (soybean looper (SBL)) | minimum Cry2Aa protein expression for lower than 20% leaf damage (soybean looper (SBL); Arabidopsis events) | minimum Cry2Aa protein expression for lower than 30% leaf damage (soybean looper (SBL); Arabidopsis events) | TraP processed and cleaved from the YFP or GFP protein [1] | translocation of YFP or GFP fluorescent protein into chloroplasts [2] | translocation of YFP or GFP fluorescent protein into chloroplasts ([2]; listed as TraP11-YFP)
B1 | protected from TBW damage | ~1.5 | 2.0-2.5 ng/cm^2 | protected from SBL damage | 2.0-2.5 ng/cm^2 | about 1.5 ng/cm^2 | – | – | –
B2 | provided insect tolerance | – | – | provided insect tolerance | – | – | processed and cleaved from the YFP or GFP protein | accumulated within the chloroplasts; also recorded: successfully targeted YFP to tobacco chloroplasts | translocated into the chloroplasts
